# Measured values as given in patent publication US20220324909A1 (COHBAR, published 2022).
# Non-standard residues stand in square brackets, D forms with d. Primed or numbered codes have the meaning given here. No end group written: not given here. PEG12″ = PEG12 group on the N-terminal Lys
# Target: ProLink tagged human APJ (Apelin Receptor) in CHO-K1 AGTRL1 β-Arrestin cells (human, UniProt P35414 1-380)
# Assay: cell-based or functional assay
row,Binder,"β-Arrestin recruitment, Percent of Apelin-13 Control Activity (10 µM peptide)"
1,MMGMV [SEQ ID NO 44],0 % of Apelin-13 control
2,RRMMGMVYQCLCG[dA] (cysteine pairing not given here) [SEQ ID NO 10],3 % of Apelin-13 control
3,RRMMGMVFQELCG[dA] [SEQ ID NO 13],1 % of Apelin-13 control
4,MMGMVFQ [SEQ ID NO 46],0 % of Apelin-13 control
5,RRMMGMVFQCLCG[dA] (cysteine pairing not given here) [SEQ ID NO 8],17 % of Apelin-13 control
6,RXMMGMVFQSLCGA ((AIB) aminoisobutyric acid at position 2; (dA) D-alanine at position 14) [SEQ ID NO 34],8 % of Apelin-13 control
7,RRLLGLVFQSLEG[dA] [SEQ ID NO 41],0 % of Apelin-13 control
8,RRMMGMVFQSLEG[dA] [SEQ ID NO 39],0 % of Apelin-13 control
9,RRLLGLVFQSLCG[dA] [SEQ ID NO 33],9 % of Apelin-13 control
10,RRMMGMVEQCLCG[dA] (cysteine pairing not given here) [SEQ ID NO 12],-1 % of Apelin-13 control
11,[PEG12″]KRRIIGIVFQCLCG[dA] (cysteine pairing not given here) [SEQ ID NO 42],8 % of Apelin-13 control
12,RRLLGLVEQSLCG[dA] [SEQ ID NO 40],0 % of Apelin-13 control
13,RRMMGMVEQSLCG[dA] [SEQ ID NO 38],0 % of Apelin-13 control
14,RRMMGMVFQSLCG[dA] [SEQ ID NO 15],40 % of Apelin-13 control
15,MMGMVFQSL [SEQ ID NO 48],1 % of Apelin-13 control
16,MMGMVF [SEQ ID NO 45],0 % of Apelin-13 control
17,RXLLGLVFQSLCGA ((AIB) aminoisobutyric acid at position 2; (dA) D-alanine at position 14) [SEQ ID NO 35],17 % of Apelin-13 control
18,MMGMVFQSLCG[dA] [SEQ ID NO 49],1 % of Apelin-13 control
19,RRMMGMVFQCLEG[dA] [SEQ ID NO 14],0 % of Apelin-13 control
20,RRMEVYQCLCG[dA] (cysteine pairing not given here) [SEQ ID NO 31],0 % of Apelin-13 control
21,MMGMVFQS [SEQ ID NO 47],1 % of Apelin-13 control
22,MRRMMGMVFQCLCGL [SEQ ID NO 7],91 % of Apelin-13 control
23,RRMEVYQCLEG[dA] [SEQ ID NO 32],0 % of Apelin-13 control
24,KRRMMGMVFQSLCGA ((PEG12) on the N-terminal K (position 1); (dA) D-alanine at position 15) [SEQ ID NO 36],63 % of Apelin-13 control
25,KRRLLGLVFQSLCGA ((PEG12) on the N-terminal K (position 1); (dA) D-alanine at position 15) [SEQ ID NO 37],12 % of Apelin-13 control
26,RRMMGMVAQCLCG[dA] (cysteine pairing not given here) [SEQ ID NO 11],0 % of Apelin-13 control

# Target: T1, Apelin Receptor (APJ) stably overexpressed in CHO-K1 AGTRL1 Gi cells (human, UniProt P35414 1-380)
# T1 sequence (looked up): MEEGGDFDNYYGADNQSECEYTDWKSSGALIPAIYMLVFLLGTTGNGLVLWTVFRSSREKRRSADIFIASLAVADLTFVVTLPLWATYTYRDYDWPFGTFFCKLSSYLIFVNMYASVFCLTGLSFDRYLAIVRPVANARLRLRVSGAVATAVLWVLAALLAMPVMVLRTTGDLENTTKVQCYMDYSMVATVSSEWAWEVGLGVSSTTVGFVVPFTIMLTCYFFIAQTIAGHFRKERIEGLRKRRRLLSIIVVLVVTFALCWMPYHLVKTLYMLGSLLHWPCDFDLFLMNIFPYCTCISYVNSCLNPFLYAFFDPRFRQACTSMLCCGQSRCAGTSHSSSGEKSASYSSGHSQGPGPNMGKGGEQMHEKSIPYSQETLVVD
# Assay: cell-based or functional assay
row,Binder,"cAMP levels, Percent of Pyr-Apelin-13 Control Activity (10 µM peptide, 10 µM forskolin)"
1,MMGMV [SEQ ID NO 44],5 % of Pyr-Apelin-13 control
2,RRMMGMVYQCLCG[dA] (cysteine pairing not given here) [SEQ ID NO 10],70 % of Pyr-Apelin-13 control
3,RRMMGMVFQELCG[dA] [SEQ ID NO 13],49 % of Pyr-Apelin-13 control
4,MMGMVFQ [SEQ ID NO 46],11 % of Pyr-Apelin-13 control
5,RRMMGMVFQCLCG[dA] (cysteine pairing not given here) [SEQ ID NO 8],64 % of Pyr-Apelin-13 control
6,RXMMGMVFQSLCGA ((AIB) aminoisobutyric acid at position 2; (dA) D-alanine at position 14) [SEQ ID NO 34],61 % of Pyr-Apelin-13 control
7,RRLLGLVFQSLEG[dA] [SEQ ID NO 41],15 % of Pyr-Apelin-13 control
8,RRMMGMVFQSLEG[dA] [SEQ ID NO 39],-13 % of Pyr-Apelin-13 control
9,RRLLGLVFQSLCG[dA] [SEQ ID NO 33],27 % of Pyr-Apelin-13 control
10,RRMMGMVEQCLCG[dA] (cysteine pairing not given here) [SEQ ID NO 12],24 % of Pyr-Apelin-13 control
11,[PEG12″]KRRIIGIVFQCLCG[dA] (cysteine pairing not given here) [SEQ ID NO 42],33 % of Pyr-Apelin-13 control
12,RRLLGLVEQSLCG[dA] [SEQ ID NO 40],19 % of Pyr-Apelin-13 control
13,RRMMGMVEQSLCG[dA] [SEQ ID NO 38],12 % of Pyr-Apelin-13 control
14,RRMMGMVFQSLCG[dA] [SEQ ID NO 15],105 % of Pyr-Apelin-13 control
15,MMGMVFQSL [SEQ ID NO 48],15 % of Pyr-Apelin-13 control
16,MMGMVF [SEQ ID NO 45],10 % of Pyr-Apelin-13 control
17,RXLLGLVFQSLCGA ((AIB) aminoisobutyric acid at position 2; (dA) D-alanine at position 14) [SEQ ID NO 35],8 % of Pyr-Apelin-13 control
18,MMGMVFQSLCG[dA] [SEQ ID NO 49],14 % of Pyr-Apelin-13 control
19,RRMMGMVFQCLEG[dA] [SEQ ID NO 14],39 % of Pyr-Apelin-13 control
20,RRMEVYQCLCG[dA] (cysteine pairing not given here) [SEQ ID NO 31],2 % of Pyr-Apelin-13 control
21,MMGMVFQS [SEQ ID NO 47],-6 % of Pyr-Apelin-13 control
22,MRRMMGMVFQCLCGL [SEQ ID NO 7],109 % of Pyr-Apelin-13 control
23,RRMEVYQCLEG[dA] [SEQ ID NO 32],4 % of Pyr-Apelin-13 control
24,KRRMMGMVFQSLCGA ((PEG12) on the N-terminal K (position 1); (dA) D-alanine at position 15) [SEQ ID NO 36],101 % of Pyr-Apelin-13 control
25,KRRLLGLVFQSLCGA ((PEG12) on the N-terminal K (position 1); (dA) D-alanine at position 15) [SEQ ID NO 37],53 % of Pyr-Apelin-13 control
26,RRMMGMVAQCLCG[dA] (cysteine pairing not given here) [SEQ ID NO 11],49 % of Pyr-Apelin-13 control

# Target: T1, Apelin Receptor (APJ) stably …
# Assay: cell-based or functional assay
# Remark: another data set of the same source
row,Binder,"IC50, inhibition of forskolin-stimulated cAMP accumulation [nM]"
1,RRIIGIVFQSLCG[dA] [SEQ ID NO 43],2070
2,[PEG12″]KRRIIGIVFQCLCG[dA] (cysteine pairing not given here) [SEQ ID NO 42],4380
3,RRMMGMVFQSLCG[dA] [SEQ ID NO 15],4490
4,MRRMMGMVFQCLCGL [SEQ ID NO 7],1240
5,KRRMMGMVFQSLCGA ((PEG12) on the N-terminal K (position 1); (dA) D-alanine at position 15) [SEQ ID NO 36],1600
6,KRRLLGLVFQSLCGA ((PEG12) on the N-terminal K (position 1); (dA) D-alanine at position 15) [SEQ ID NO 37],2500
